Measurements reported in patent publication US20220242958A1, “BISPECIFIC NANOBODIES” (Ablynx N.V., priority 2013, published 2022).

How the values were obtained:
Type in all cases: binding
[1] = target: T1, human IL12Rβ2 extracellular domain Fc-fusion (Homo sapiens, UniProt Q99665); test: SPR (Biacore T100) on IL12Rβ2-Fc
T1 construct: Fc-fusions of human IL12Rβ1, IL12Rβ2 and IL-23R extracellular domains; purchased R&D Systems #1959-B2
T1 sequence (Q99665 24-622 limits assumed): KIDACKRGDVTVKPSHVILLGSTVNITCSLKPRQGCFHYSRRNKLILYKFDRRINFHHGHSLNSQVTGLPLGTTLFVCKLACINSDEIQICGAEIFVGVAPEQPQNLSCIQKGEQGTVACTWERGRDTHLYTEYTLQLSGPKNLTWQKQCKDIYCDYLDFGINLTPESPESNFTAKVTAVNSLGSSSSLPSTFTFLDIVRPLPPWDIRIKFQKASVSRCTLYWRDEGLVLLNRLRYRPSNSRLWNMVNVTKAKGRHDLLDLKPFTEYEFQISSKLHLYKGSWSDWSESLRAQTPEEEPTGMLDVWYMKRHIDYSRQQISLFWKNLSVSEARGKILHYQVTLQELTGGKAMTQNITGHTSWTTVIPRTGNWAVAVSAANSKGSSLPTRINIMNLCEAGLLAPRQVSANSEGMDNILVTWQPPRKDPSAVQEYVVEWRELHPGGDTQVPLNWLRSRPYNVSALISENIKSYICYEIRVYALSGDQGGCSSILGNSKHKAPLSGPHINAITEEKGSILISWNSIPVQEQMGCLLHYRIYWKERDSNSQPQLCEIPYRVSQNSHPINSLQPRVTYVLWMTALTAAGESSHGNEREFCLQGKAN
Description: (§1) The precise binding affinities of the purified Nanobodies were determined in a multi-cycle kinetic analysis using Surface Plasmon Resonance analysis (Biacore T100) on Fc-fusions of human IL12Rβ1, IL12Rβ2 and IL-23R extracellular domains (R&D Systems, #839-B1, #1959-B2, #1400-IR). Sensorchips CM5 were immobilized with anti-hIgG antibody (GE Healthcare, BR-1008-39), after which receptors were captured at 5 μg/ml protein and contact time of 120 seconds. Running buffer used was HBS-EP+ (GE Healthcare, BR-1006-69) at 25° C., with a flow-rate of […]. For immobilization by amine coupling, EDC/NHS was used for activation and ethanolamine HCl for deactivation (Biacore, amine coupling kit). Nanobodies were evaluated at a concentration range between 1.37 nM and 3 μM. Nanobodies were allowed to associate for 2 min and to dissociate for 15 min at a flow rate of […]. In between injections, the surfaces were regenerated with a 3 min pulse of 3M MgCl2 and 2 min stabilization period. Evaluation of the association/dissociation data was performed by fitting a 1:1 interaction model (Langmuir binding model) by Biacore TWO software v2.0.3.

[2] = target: T2, human IL-23R extracellular domain Fc-fusion (Homo sapiens, UniProt Q5VWK5); test: SPR (Biacore T100) on IL-23R-Fc
T2 construct: Fc-fusions of human IL12Rβ1, IL12Rβ2 and IL-23R extracellular domains; purchased R&D Systems #1400-IR
T2 sequence (Q5VWK5 24-355 limits assumed): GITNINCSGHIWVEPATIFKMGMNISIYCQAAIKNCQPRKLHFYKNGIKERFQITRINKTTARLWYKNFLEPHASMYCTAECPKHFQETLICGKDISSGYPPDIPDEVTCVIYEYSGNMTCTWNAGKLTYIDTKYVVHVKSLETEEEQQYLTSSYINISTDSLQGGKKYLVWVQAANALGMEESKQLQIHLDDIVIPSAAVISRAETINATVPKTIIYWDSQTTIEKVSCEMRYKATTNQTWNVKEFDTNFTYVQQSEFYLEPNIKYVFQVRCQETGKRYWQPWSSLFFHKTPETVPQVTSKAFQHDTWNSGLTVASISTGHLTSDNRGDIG
Description: as §1

[3] = target: T3, recombinant IL-3Rα ectodomain (Homo sapiens, UniProt P26951); test: SPR (ProteOn) on recombinant IL-3Rα ectodomain
T3 construct: Immobilisation of recombinant IL-3Rα ectodomain (Sino Biologicals) was done until 761 RU; purchased Sino Biologicals
T3 sequence (P26951 19-305 limits assumed): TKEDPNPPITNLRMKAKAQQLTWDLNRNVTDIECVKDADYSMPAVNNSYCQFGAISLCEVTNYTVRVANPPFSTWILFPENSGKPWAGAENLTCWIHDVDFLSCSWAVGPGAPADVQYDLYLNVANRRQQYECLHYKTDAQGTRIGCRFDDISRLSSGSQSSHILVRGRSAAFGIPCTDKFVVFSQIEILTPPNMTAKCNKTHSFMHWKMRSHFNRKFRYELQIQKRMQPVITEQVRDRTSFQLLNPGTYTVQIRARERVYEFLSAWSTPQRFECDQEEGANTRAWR
Description: The affinities of CD123 specific Nanobodies were further investigated via Surface Plasmon Resonance (SPR) at ProteOn. Immobilisation of recombinant IL-3Rα ectodomain (Sino Biologicals) was done until 761 RU. The Nanobodies were applied at a highest concentration of 1 μM, followed by a three-fold titration, covering 5 further concentrations ranging from 1 μM to 4.1 nM. These were then applied in a single injection cycle, utilising the ProteOn's specific one-shot kinetics approach for kinetic analysis. Evaluation of the association/dissociation data was performed by fitting a 1:1 interaction model (Langmuir binding model). […] For CD123 Nanobodies the obtained KD values correlated well with the apparent affinities retrieved by cell binding EC50 values (see Table 3).

hCEACAM5 = target: T4, hCEACAM5 (Homo sapiens, UniProt P06731); test: SPR (Biacore T100) on hCEACAM-5
T4 construct: purchased R&D Systems 4128-CM
T4 sequence (P06731 35-676): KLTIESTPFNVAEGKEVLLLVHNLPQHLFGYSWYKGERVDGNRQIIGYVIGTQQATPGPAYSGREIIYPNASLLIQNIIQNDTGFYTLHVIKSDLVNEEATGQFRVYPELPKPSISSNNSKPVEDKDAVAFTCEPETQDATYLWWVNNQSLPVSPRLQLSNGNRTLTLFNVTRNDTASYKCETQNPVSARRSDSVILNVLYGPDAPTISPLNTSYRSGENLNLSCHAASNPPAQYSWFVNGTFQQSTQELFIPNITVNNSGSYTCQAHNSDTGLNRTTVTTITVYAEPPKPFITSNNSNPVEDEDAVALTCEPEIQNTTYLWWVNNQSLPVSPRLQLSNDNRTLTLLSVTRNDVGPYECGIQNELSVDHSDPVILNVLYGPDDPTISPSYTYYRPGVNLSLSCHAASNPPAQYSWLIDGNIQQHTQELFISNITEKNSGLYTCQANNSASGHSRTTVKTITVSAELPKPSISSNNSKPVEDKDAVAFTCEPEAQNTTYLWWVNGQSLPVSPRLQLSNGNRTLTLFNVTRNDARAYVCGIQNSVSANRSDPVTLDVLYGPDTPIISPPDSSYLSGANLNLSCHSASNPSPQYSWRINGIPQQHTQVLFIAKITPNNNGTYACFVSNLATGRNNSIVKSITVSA
Description: In between injections, the surfaces were regenerated with a 5 sec pulse of 10 mM Glycine-HCl pH1.5 and 1 min stabilization period. Evaluation of the association/dissociation data was performed by fitting a 1:1 interaction model (Langmuir binding model) by Biacore T100 software v2.0.3. The affinity constant KD was calculated from resulting association and dissociation rate constants ka and kd and are shown in Table 4.2. The observed affinity of the NbCEA5 Nanobody (designated as CEA#1) and humanised variant (CEA#2) was in line with the reported value.

B1: IL12Rb2#2: IL-12Rβ2 specific ligand competing Nanobody (protein)
VHH: EVQLVESGGRLVQAGDSLRLSCAASGRTFTSYRMGWFRQAPGKEREFVSALRWSSGNIDYTYYADSVKGRFSISGDYAKNTVYLQMNSLKAEDTAVYYCAASTRWGVMESDTEYTSWGQGTLVTVSS
- Binding kinetics (SPR) ka (1/Ms), IL12Rβ2 [1]: 270000 M⁻¹ s⁻¹
- Binding kinetics (SPR) kd (1/s), IL12Rβ2 [1]: 0.0018 s⁻¹

B2: IL23R#19: IL-23R specific ligand competing Nanobody (protein)
VHH: EVQLVESGGGLVQPGGSLTLSCVASGRTFSTDVMGWFRQAPGKEREFVAAHRTSGISTVYAASVKGRFTISRDNAKNTVYLGMKSLKPEDTAVYVCAAGSDASGGYDYWGQGTLVTVSS
- Binding kinetics (SPR) ka (1/Ms), IL-23R [2]: 730000 M⁻¹ s⁻¹
- Binding kinetics (SPR) kd (1/s), IL-23R [2]: 0.0081 s⁻¹

B3: 55C05: CD123 building block, SEQ ID NO: 11 (protein)
VHH: EVQLVESGGGLVPAGDSLRLSCVASGRSLNTYTMGWFRQAPGKECEFVAAINWNGVYRDYADSAKGRFTASRDNAMNTVFLQMNSLKPEDTAVYFCATATQGWDRHTEPSDFGSWGLGTQVTVSS
- SPR - IL-3Ra ka [3]: 126000 M⁻¹ s⁻¹
- SPR - IL-3Ra kd [3]: 0.00741 s⁻¹

B4: 50F07: CD123 building block, SEQ ID NO: 12 (protein)
VHH: EVQLVESGGGLVQPGGSLRLSCTGSGSTFSINAMGWYRQAPGKQRELVAAITSGGRTNYADSVKGRFTISRDNSKNTVYLQMNSLRPEDTAVYYCNARISAGTAFWLWSDYEYWGLGTLVTVSS
- SPR - IL-3Ra ka [3]: 102000 M⁻¹ s⁻¹
- SPR - IL-3Ra kd [3]: 0.00758 s⁻¹

B5: 55B04: CD123 building block, SEQ ID NO: 9 (protein)
VHH: EVQLVESGGGLVQPGGSLRLSCAASGINFRFNSMGWWRRRAPGKEREWVAAITSGDITNYRDSVRGRFTISRDNVKNTVYLQMNTLKLEDTAVYYCNTFPPIADYWGLGTQVTVSS
- SPR - IL-3Ra ka [3]: 504000 M⁻¹ s⁻¹
- SPR - IL-3Ra kd [3]: 0.00794 s⁻¹

B6: CEA#5: NbCEA5(K43Q, G47A, T73N, V78L) (protein)
VHH: EVQLVESGGGSVQAGGSLRLSCAASGDTYGSYWMGWFRQAPGQEREAVAAINRGGGYTVYADSVKGRFTISRDNAKNTLYLQMNSLRPDDTADYYCAASGVLGGLHEDWFNYWGQGTLVTVSS
- hCEACAM5 ka (hCEACAM5): 1.1e+06 M⁻¹ s⁻¹
- hCEACAM5 kd (hCEACAM5): 0.0033 s⁻¹

B7: CEA#2: humanised NbCEA5 variant (S11L, A14P, K43Q, E44G, R45L, G47A, T73N, A74S, V78L, P84A, D85E, D89V) (protein)
VHH: EVQLVESGGGLVQPGGSLRLSCAASGDTYGSYWMGWFRQAPGQGLEAVAAINRGGGYTVYADSVKGRFTISRDNSKNTLYLQMNSLRAEDTAVYYCAASGVLGGLHEDWFNYWGQGTLVTVSS
- hCEACAM5 ka (hCEACAM5): 1.3e+06 M⁻¹ s⁻¹
- hCEACAM5 kd (hCEACAM5): 0.0025 s⁻¹

B8: 55F03: CD123 building block, SEQ ID NO: 13 (protein)
VHH: EVQLVESGGGLVQAGGPLRLSCAASGRTFSSYVMGWFRQAPGKEREFVAAIYWSNGKTQYTDSVKGRFTISGDNAKNTVYLQMNSLNPEDTAVYYCVADKDETGFRTLPIAYDYWGLGTQVTVSS
- SPR - IL-3Ra ka [3]: 42500 M⁻¹ s⁻¹
- SPR - IL-3Ra kd [3]: 0.00487 s⁻¹

B9: 51D09: CD123 building block, SEQ ID NO: 10 (protein)
VHH: EVQLVESGGGLVQPGGSLRLSCAASGSIFSGNTMGWYRQAPGKQRELVAAISSGGSTDYADSVKGRFTISRDNSKNTVYLQMNSLRPEDTAVYYCNAAILLYRLYGYEEGDYWGLGTLVTVSS
- SPR - IL-3Ra ka [3]: 37800 M⁻¹ s⁻¹
- SPR - IL-3Ra kd [3]: 0.000516 s⁻¹
